The target of series [1] is T1, wheat germ agglutinin (WGA) (Triticum vulgare, UniProt P10968 P10968:27-197).
T1 sequence: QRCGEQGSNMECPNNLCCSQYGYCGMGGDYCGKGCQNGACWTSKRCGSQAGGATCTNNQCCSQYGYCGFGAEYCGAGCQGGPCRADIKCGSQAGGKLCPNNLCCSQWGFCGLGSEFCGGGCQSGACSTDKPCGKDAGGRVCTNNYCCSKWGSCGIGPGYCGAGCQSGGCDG
Put plainly: filter; HBSS, room temp. The following applies: tags: free lectin, E Y Laboratories; label: 32P; hairpin. As for the experimental part:
(§1) The specifically eluted fraction was processed for use in the following round. Fractions eluted from immobilized WGA were heated at 90° C. for 5 minutes in 1% SDS, 2% β-mercaptoethanol and extracted with phenol/chloroform. RNA was reverse transcribed into cDNA by AMV reverse transcriptase at 48° C. for 60 min in 50 mM Tris-Cl pH (8.3), 60 mM NaCl, 6 mM Mg(OAc)_2, 10 mM DTT, 100 pmol DNA primer, 0.4 mM each of dNTPs, and 0.4 unit/µl AMV RT. […] C) Nitrocellulose Filter Partitioning As described in SELEX Patent Applications, the nitrocellulose filter partitioning method was used to determine the affinity of RNA ligands for WGA and for other proteins. Filter discs (nitrocellulose/cellulose acetate mixed matrix, 0.45 µm pore size, Millipore; or pure nitrocellulose, 0.45 µm pore size, Bio-Rad) were placed on a vacuum manifold and washed with 4 ml of HBSS buffer under vacuum. Reaction mixtures, containing ^32P labeled RNA pools and unlabeled WGA, were incubated in HBSS for 10 min at room temperature, filtered, and then immediately washed with 4 ml HBSS. The filters were air-dried and counted in a Beckman LS6500 liquid scintillation counter without fluor. WGA is a homodimer, molecular weight 43.2 kD, with 4 GlcNAc binding sites per dimer. For affinity calculations, we assume one RNA ligand binding site per monomer (two per dimer). The monomer concentration is defined as 2 times the dimer concentration. The equilibrium dissociation constant, K_d, for an RNA pool or specific ligand that binds monophasically is given by the equation $$K_d=[P_f][R_f]/[RP]$$
The dissociation constants for representative members of families 1–9 and orphan ligands were determined by nitrocellulose filter binding experiments and are listed in Table III. These calculations assume one RNA ligand binding site per WGA monomer.

In series [2] the target is T1, wheat germ agglutinin (WGA). Put plainly: filter; HBSS, room temp; printed as 11.2, SEQ 40. The following applies: tags: free lectin, E Y Laboratories; label: 32P. As for the experimental part: as §1, with “WGA is a homodimer, molecular weight 43.2 kD, with 4 GlcNAc binding sites per dimer. For affinity calculations, we assume one RNA ligand binding site per monomer (two per dimer). The monomer concentration is defined as 2 times the dimer concentration. The equilibrium dissociation constant, K_d, for an RNA pool or specific ligand that binds monophasically is given by the equation $$K_d=[P_f][R_f]/[RP]$$” left out
The dissociation constants for representative members of families 1–9 and orphan ligands were determined by nitrocellulose filter binding experiments and are listed in Table III. […]

The target of series [3] is T2, Ulex europaeus lectin UEA-II (Ulex europaeus, UniProt P22973 P22973:1-249).
T2 sequence: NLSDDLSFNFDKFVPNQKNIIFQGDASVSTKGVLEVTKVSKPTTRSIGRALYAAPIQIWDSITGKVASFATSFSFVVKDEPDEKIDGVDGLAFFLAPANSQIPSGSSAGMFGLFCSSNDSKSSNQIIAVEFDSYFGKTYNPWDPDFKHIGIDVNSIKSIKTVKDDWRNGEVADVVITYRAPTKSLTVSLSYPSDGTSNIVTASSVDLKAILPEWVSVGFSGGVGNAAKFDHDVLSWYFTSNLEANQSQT
Put plainly: filter; HBSS, room temp. Particulars: tags: E Y Laboratories; label: 32P. The procedure: as §1, with “The monomer concentration is defined as 2 times the dimer concentration. The equilibrium dissociation constant, K_d, for an RNA pool or specific ligand that binds monophasically is given by the equation $$K_d=[P_f][R_f]/[RP]$$” left out

A further series deals with T3, P-selectin (PS-Rg) (Homo sapiens, UniProt P16109 P16109:42-321).
T3 chain: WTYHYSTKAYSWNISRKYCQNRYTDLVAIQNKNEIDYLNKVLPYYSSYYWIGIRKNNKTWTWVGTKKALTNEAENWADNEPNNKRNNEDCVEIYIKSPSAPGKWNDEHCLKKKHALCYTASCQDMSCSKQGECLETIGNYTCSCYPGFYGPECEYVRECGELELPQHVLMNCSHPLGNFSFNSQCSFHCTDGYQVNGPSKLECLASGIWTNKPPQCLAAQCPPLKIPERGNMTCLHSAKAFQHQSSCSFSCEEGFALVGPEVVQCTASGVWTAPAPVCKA
Put plainly: filter; room temp, Ca/Mg buffer. Particulars: tags: lectin, EGF and first two CRD domains fused to human IgG1 Fc (provided by A. Varki); chain copies: 2 (dimeric Fc chimera, inferred). The procedure: as §1, with “RNA” for “The specifically eluted fraction was processed for use in the following round. Fractions eluted from immobilized WGA were heated at 90° C. for 5 minutes in 1% SDS, 2% β-mercaptoethanol and extracted with phenol/chloroform. RNA”
(§2) The affinity of representative cloned ligands for LS-Rg, ES-Rg, PS-Rg, CD22β-Rg and WGA was determined by nitrocellulose partitioning and the results shown in Table XIV. The ligands are highly specific for L-selectin.
(§3) *Kds were determined at room temperature.

For a further series, the target named is T4, E-selectin (ES-Rg) (Homo sapiens, UniProt P16581 P16581:22-556).
T4 chain: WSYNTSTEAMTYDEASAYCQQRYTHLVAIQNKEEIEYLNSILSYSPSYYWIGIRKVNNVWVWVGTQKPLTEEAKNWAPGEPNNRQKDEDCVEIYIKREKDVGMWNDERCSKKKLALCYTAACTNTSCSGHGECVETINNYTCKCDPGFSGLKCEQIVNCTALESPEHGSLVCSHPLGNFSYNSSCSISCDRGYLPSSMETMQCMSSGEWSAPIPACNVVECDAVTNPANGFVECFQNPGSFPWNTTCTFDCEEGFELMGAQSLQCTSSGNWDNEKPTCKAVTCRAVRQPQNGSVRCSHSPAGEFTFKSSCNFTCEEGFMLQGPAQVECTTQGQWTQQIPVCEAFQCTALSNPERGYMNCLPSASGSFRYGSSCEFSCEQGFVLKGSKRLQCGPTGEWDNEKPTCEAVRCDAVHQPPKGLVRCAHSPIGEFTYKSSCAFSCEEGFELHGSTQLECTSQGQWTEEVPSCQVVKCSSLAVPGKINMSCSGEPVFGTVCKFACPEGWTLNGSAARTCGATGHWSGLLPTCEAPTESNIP
Put plainly: filter; room temp, Ca/Mg buffer. The following applies: tags: extracellular domain fused to human IgG1 Fc (provided by A. Varki); chain copies: 2 (dimeric Fc chimera, inferred). The procedure: as §1, with “RNA” for “The specifically eluted fraction was processed for use in the following round. Fractions eluted from immobilized WGA were heated at 90° C. for 5 minutes in 1% SDS, 2% β-mercaptoethanol and extracted with phenol/chloroform. RNA”
as §2, §3

The target in series [4] is T5, L-selectin (LS-Rg) (Homo sapiens, UniProt P14151 P14151:39-332).
T5 chain: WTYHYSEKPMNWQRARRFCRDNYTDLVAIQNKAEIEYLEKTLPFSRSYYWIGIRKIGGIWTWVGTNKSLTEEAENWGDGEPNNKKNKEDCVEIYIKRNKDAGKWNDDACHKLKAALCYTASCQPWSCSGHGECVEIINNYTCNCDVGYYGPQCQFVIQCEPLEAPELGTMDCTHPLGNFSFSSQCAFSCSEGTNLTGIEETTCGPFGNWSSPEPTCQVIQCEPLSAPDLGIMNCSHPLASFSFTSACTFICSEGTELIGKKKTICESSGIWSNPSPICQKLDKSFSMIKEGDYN
Put plainly: filter; room temp; 1.8 nM at 37 C. Particulars: tags: human IgG2 Fc fusion (provided by A. Varki), label: 32P.

For series [5], the target named is T5, L-selectin (LS-Rg). Put plainly: filter; room temp; 23.2 nM at 37 C. The following applies: tags: human IgG2 Fc fusion (provided by A. Varki); label: 32P; hairpin.
The target of series [6] is T5, L-selectin (LS-Rg). Put plainly: filter; room temp; 9.6 nM at 37 C. The following applies: tags: human IgG2 Fc fusion (provided by A. Varki); label: 32P.
Series [7] has as its target T5, L-selectin (LS-Rg). Put plainly: filter; room temp; 590 pM at 37 C. The following applies: tags: human IgG2 Fc fusion (provided by A. Varki); label: 32P; hairpin.
The target in series [8] is T5, L-selectin (LS-Rg). Put plainly: filter; apparently 37 C column; synthetic full-length 201 control 3.8 nM. The following applies: tags: human IgG2 Fc fusion (provided by A. Varki); label: 32P; hairpin.
Series [9] deals with T5, L-selectin (LS-Rg). Put plainly: filter; room temp; 6.8 nM at 37 C. Particulars: tags: human IgG2 Fc fusion (provided by A. Varki); label: 32P; hairpin.

The results in this text go back to patent publication US6001988, “High affinity nucleic acid ligands to lectins” (NeXstar Pharmaceuticals, Inc.).

B1: 11.4 (ssRNA)
RNA: GGGAAAAGCGAAUCAUACACAAGACAGGCACUGAAAACUCGGCGGGAACGAAAGUAGUGCCGACUCAGACGCGUGCUCCGCCAGAGACCAACCGAGAA
modifications: 2'-NH2 all C and U
The molecule B1 gave a Kd in series [1] of 32 nM.

B2: 11.20 (ssRNA)
RNA: GGGAAAAGCGAAUCAUACACAAGAUUGGUCGUACUGGACAGAGCCGUGGUAGAGGGAUUGGGACAAAGUGUCAGCUCCGCCAGAGACCAACCGAGAA
modifications: 2'-NH2 all C and U
Turning to B2, the Kd in series [2] was 1.4 nM; in [3], 2200 nM.

B3: 233 (ssDNA)
DNA: CTACCTACGATCTGACTAGCCACGACAGAGAACAAGGCGTTAGACGTTATCCGACCACGGCTTACTCTCATGTAGTTCC
On to B3, for which the Kd amounted to 420 nM in the series with P-selectin (PS-Rg) and 39 nM with E-selectin (ES-Rg).

B4: 128 (ssDNA)
DNA: CTACCTACGATCTGACTAGCAGGACCAAGGTGTTAAACGGCTCCCCTGGCTATGCCTCTTGCTTACTCTCATGTAGTTCC
As to B4, the Kd with L-selectin (LS-Rg) [4] (hairpin) was 0.31 nM.

B5: 11.27 (ssRNA)
RNA: GGGAAAAGCGAAUCAUACACAAGACGAUGCGAGGCAAGAAAUGGAGUCGUUACGAACCCUCUUGCAGUGCGCGGCUCCGCCAGAGACCAACCGAGAA
modifications: 2'-NH2 all C and U
B5 registered a Kd in [1] of 30 nM.

B6: 6.23 (ssRNA)
RNA: GGGAAAAGCGAAUCAUACACAAGACUCGGCGGGAAUCGAAAGUGUACUGAAUUAGAACGGUGGGCCUGCUCAUCGUGCUCCGCCAGAGACCAACCGAGAA
modifications: 2'-NH2 all C and U
Consider B6, for which the Kd in series [1] was determined as 824 nM.

B7: 11.19 (ssRNA)
RNA: GGGAAAAGCGAAUCAUACACAAGAAAGGGAUGGGAUUGGGACGAGCGGCCAAGACUCGGCGGGAACGAAGGGUGCUCCGCCAGAGACCAACCGAGAA
modifications: 2'-NH2 all C and U
B7 displayed a Kd in series [1] of 22 nM.

B8: 112 (ssDNA)
DNA: CTACCTACGATCTGACTAGCCGCATCCACATAGTTCAAGGGGCTACACGAAATATTGCAGCTTACTCTCATGTAGTTCC
Consider B8, for which the Kd with L-selectin (LS-Rg) [5] was 0.3 nM.

B9: 109 (ssDNA)
DNA: CTACCTACGATCTGACTAGCCCACCGTGATGCACGATACATGAGGGTGTGTCAGCGCATGCTTACTCTCATGTAGTTCC
Consider B9, for which, in the series with L-selectin (LS-Rg) [6], the Kd came out at 0.19 nM.

B10: 179 (ssDNA)
DNA: CTACCTACGATCTGACTAGCCACATGCCTGACGCGGTACAAGGCCTGGACGTAACGTTGGCTTACTCTCATGTAGTTCC
For B10, the Kd with L-selectin (LS-Rg) [7] turned out to be 0.18 nM.

B11: 11.12 (ssRNA)
RNA: GGGAAAAGCGAAUCAUACACAAGACGGCUGUGUGUGGUAGCGUCAUAGUAGGAGUCGUCACGAACCAAGGCGCUCCGCCAGAGACCAACCGAGAA
modifications: 2'-NH2 all C and U
In turn, B11 showed a Kd in series [1] of 15.2 nM. Turning to GTAACCAGTACAAGGTGCTAAACGTAATGGCTTCGGCTTAC (ssDNA) [201T3 (41-mer)], the Kd in the series with L-selectin (LS-Rg) [8] amounted to 43 nM.

B12: 139 (ssDNA)
DNA: CTACCTACGATCTGACTAGCGGACAAGGCACTCGACGTAGTTTATAACTCCCTCCGGGCCGCTTACTCTCATGTAGTTCC
For B12, in the series with L-selectin (LS-Rg) [9], the Kd worked out at 0.21 nM.

B13: 181 (ssDNA)
DNA: CTACCTACGATCTGACTAGCCATCAAGGACTTTGCCCGAAACCCTAGGTTCACGTGTGGGGCTTACTCTCATGTAGTTCC
On to B13, for which the Kd was 0.084 nM in the series with L-selectin (LS-Rg) [4], 1600 nM with P-selectin (PS-Rg) and 37 nM in the series with E-selectin (ES-Rg).

Take TAGCCAAGGTAACCAGTACAAGGTGCTAAACGTAATGGCTTCGGCTTAC (ssDNA) [201T1 (49-mer)]: the Kd with L-selectin (LS-Rg) [8] was 4.8 nM.
